Molecular target: T1, Human Semaphorin3A-Fc (R&D Systems), TPP-13211 (human)
T1 construct: R&D Systems 1250-S3; also called recombinant human Sema3A-Fc chimera
Assay: competition ELISA on coated TPP-13211, competitor biotinylated TPP-15374
Method: For screening in a competition ELISA setup, human Sema3a (TPP-13211) was coated onto 384-well plates (Greiner bio-one, 781077) with a concentration of 0.5 μg/ml in coating buffer (Carbonate-Basis pH 9.6, Candor 121125) over night at 10° C. After washing the plates 3 times with 50 μl PBS 0.05% Tween the plates were blocked with 50 μl Smart Block® (Candor 113500) for 1 h at 20° C. and washed again 3 times as described.
Subsequently, 20 μl of pre-mixed antibody solution was added to the plates and incubate for 18 h at 10° C. […] The total concentration of the added antibody solution was 0.25 μg/ml. During the incubation time the antibodies bound to the plates in a competitive manner as they compete for the same epitope on the human Sema3A protein.
After subsequent washing with 50 μl PBS 0.05% Tween for 3 times, 20 μl of a Streptavidin-HRP solution (R&D Systems, DY998, 1:200 in PBS 0.05% Tween 10% Smart Block) were added and incubated for 1 h and 20° C. followed by subsequent washing 3 times with 50 μl PBS 0.05% Tween and addition of 20 μl Amplex Red solution (Invitrogen A12222, 1:1000 in NaP-buffer 50 mM pH7.6 with 1:10000 of 30% H2O2). After a final incubation for 20 min at 20° C. the signal was determined using an emission wavelength of 595 nm and excitation of 530 nm.

T1 sequence (chain, as listed by the source limits assumed): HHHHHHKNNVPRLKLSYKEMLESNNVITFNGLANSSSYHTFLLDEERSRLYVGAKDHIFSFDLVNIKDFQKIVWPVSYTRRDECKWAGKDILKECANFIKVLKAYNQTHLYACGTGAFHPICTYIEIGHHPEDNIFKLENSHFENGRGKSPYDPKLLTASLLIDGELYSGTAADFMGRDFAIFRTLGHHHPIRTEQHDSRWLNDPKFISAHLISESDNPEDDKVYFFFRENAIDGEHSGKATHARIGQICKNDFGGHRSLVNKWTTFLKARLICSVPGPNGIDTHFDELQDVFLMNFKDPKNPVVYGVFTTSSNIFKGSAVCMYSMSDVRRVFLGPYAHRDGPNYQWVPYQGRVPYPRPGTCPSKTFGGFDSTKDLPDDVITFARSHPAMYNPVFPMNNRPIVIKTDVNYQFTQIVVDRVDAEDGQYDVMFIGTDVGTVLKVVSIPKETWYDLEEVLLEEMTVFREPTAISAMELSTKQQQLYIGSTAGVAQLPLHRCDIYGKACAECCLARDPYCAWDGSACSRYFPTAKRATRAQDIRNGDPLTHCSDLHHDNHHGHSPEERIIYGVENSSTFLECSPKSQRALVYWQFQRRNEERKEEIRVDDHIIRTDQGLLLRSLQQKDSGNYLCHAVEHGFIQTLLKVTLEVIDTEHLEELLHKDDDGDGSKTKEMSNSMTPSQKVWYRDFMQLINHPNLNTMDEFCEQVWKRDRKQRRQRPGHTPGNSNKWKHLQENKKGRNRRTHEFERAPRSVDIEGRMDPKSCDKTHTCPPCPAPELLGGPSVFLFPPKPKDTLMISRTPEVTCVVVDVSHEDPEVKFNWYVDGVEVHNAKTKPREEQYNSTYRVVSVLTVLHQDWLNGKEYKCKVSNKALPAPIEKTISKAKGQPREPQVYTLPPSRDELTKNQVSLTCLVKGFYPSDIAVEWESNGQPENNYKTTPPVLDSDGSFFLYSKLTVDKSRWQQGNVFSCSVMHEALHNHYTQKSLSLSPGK

VAL norm to TPP-9809 (1 to 1 ratio): 0.69
VAL norm to TPP-9809 (1 to 5 ratio): 0.41
B1: TPP-15374 (antibody, human IgG1, lambda, V domains shown)
VH: EVQLLESGGGLVQPGGSLRLSCAASGFTFSSYEMNWVRQAPGKGLEWVSGISWNSGSIGYADSVKGRFTISRDNSKNTLYLQMNSLRAEDTAVYYCARSGYSSSWFDPDFDYWGQGTLVTVSS
VL: QSVLTQPPSASGTPGQRVTISCTGSSSNIGAGYDVHWYQQLPGTAPKLLIYGNSNRPSGVPDRFSGSKSGTSASLAISGLRSEDEADYYCSSYAGSNPYVVFGGGTKLTVLG
notes: human IgG1; also called IgG1, hit from panning; parental mAb
